Source: PMC11588112

Key:
[1] = biological target: mumps postfusion F glycoprotein trimer (unstabilized 476-GCN4) (mumps virus); assay: negative-stain EM; purified glycoprotein designs alone, 2D class averages
[2] = biological target: prefusion-stabilized mumps fusion (F) glycoprotein trimer, genotype G (V206C-A223C with 476-GCN4 and 101KRF-101GGG) (mumps virus, genotype G); assay: crystal structure
[3] = biological target: prefusion-stabilized mumps fusion (F) glycoprotein trimer, genotype G (V206C-A223C with 476-GCN4 and 101KRF-101GGG) (mumps virus, genotype G); assay: negative-stain EM; purified glycoprotein designs alone, 2D class averages

Substance	stoichiometry N [1]	stoichiometry N [2]	stoichiometry N [3]
mumps postfusion F glycoprotein trimer (unstabilized 476-GCN4)	3		
prefusion-stabilized mumps fusion (F) glycoprotein trimer, genotype G (V206C-A223C with 476-GCN4 and 101KRF-101GGG)		3	3
